Test results taken from US8551717B2, “Method for determining sumoylation” (Medizinische Hochschule Hannover, priority 2008, dated 2013).

Key:
STAT1-FRB and STAT1-FKBP = target: T1, STAT1-FRB and STAT1-FKBP (Homo sapiens, UniProt P42224+P42345+P62942); assay: USDDS: AP21967-induced in vivo SUMOylation of STAT1 fusion proteins, western blot; format: cell-based; details: HEK293
T1 construct: seven C-terminal amino acids of the human STAT1a in the STAT1-FKBP/FRB fusion proteins are missing; FKBP domain (in STAT1-FKBP); expressed in transfected cells; host or cells: HEK293
Excerpt: (§1) To identify new SUMOylation substrates and to study the function of SUMOylation the Ubc9/substrate dimerisation-dependent SUMOylation system (USDDS) was developed which consists of fusions of the SUMOylation substrate and of the SUMO-conjugating enzyme Ubc9 to the chemically activatable heterodimerisation domains FKBP and FRB, respectively, as shown in FIG. 2. When the substrate protein fused to FKBP is coexpressed with Ubc9-FRB, treatment of HEK293 cells with the rapamycin-related dimerizer AP21967 induces SUMOylation of the substrate protein fused to FKBP at its specific SUMOylation site. […] Dependent on an EcoRl site in the coding sequence, seven C-terminal amino acids of the human STAT1a in the STAT1-FKBP/FRB fusion proteins are missing. For the SUMOylation analysis HEK293 (human embryonic kidney cells) cells have been used. HEK293 cells were cultured in Dulbecco's modified Eagle's medium with high glucose, complemented with 10% fetal calf serum, 2 mM L-glutamine, 100 U/ml penicillin and […] streptomycin. We performed transfection of HEK293 cells using the polyethylenimine transfection reagent. HEK293 cells of a fresh confluent 10 cm plate were transferred on a 12-well plate. […]
(§2) When p53-FRB or STAT1-FRB were coexpressed with Ubc9-FKBP together with EGFP-SUMO1, no significant EGFP-SUMO1 conjugation of STAT1-FRB and of p53-FRB could be detected (FIG. 3A,B). […]

p53-FRB and p53-FKBP = assay: USDDS: AP21967-induced in vivo SUMOylation of p53 fusion proteins, western blot; format: cell-based, human; details: HEK293
Excerpt: as §1, §2

U-MK2 = target: T2, U-MK2 (Homo sapiens, UniProt P49137+P63279); assay: Trans-SUMOylation by U-MK2; format: cell-based; details: protein 2 construct coexpressed with U-MK2 and EGFP-SUMO1 in HEK293
T2 construct: expressed in transfected cells; host or cells: HEK293

U-p38α = target: T3, U-p38α (Homo sapiens, UniProt P63279+Q16539); assay: Trans-SUMOylation by U-p38α; format: cell-based; details: protein 2 construct coexpressed with U-p38α and EGFP-SUMO1 in HEK293
T3 construct: expressed in transfected cells; host or cells: HEK293

p53-U = target: T4, p53-U (Homo sapiens, UniProt P04637+P63279); assay: Trans-SUMOylation by p53-U; format: cell-based; details: western blot
T4 construct: expressed in transfected cells; host or cells: HEK293

JUN-U = target: T5, JUN-U (Homo sapiens, UniProt P05412+P63279); assay: Trans-SUMOylation by JUN-U; format: cell-based; details: protein 2 construct coexpressed with JUN-U and EGFP-SUMO1 in HEK293; western blot; Table 2
T5 construct: expressed in transfected cells; host or cells: HEK293

MK2-U = target: T6, MK2-U (Homo sapiens, UniProt P49137+P63279); assay: Trans-SUMOylation by MK2-U; format: cell-based; details: protein 2 construct coexpressed with MK2-U and EGFP-SUMO1 in HEK293
T6 construct: expressed in transfected cells; host or cells: HEK293

U-MK5 = target: T7, U-MK5 (Homo sapiens, UniProt P63279+Q8IW41); assay: Trans-SUMOylation by U-MK5; format: cell-based; set-up: key: (++), strong TransSUMOylation; (+), TransSUMOylation; (+/−) weak TransSUMOylation; (−) no detectable TransSUMOylation; details: protein 2 construct coexpressed with U-MK5 and EGFP-SUMO1 in HEK293, western blot
T7 construct: expressed in transfected cells; host or cells: HEK293
Excerpt: To identify new SUMOylation substrates and to study the function of SUMOylation the Ubc9/substrate dimerisation-dependent SUMOylation system (USDDS) was developed which consists of fusions of the SUMOylation substrate and of the SUMO-conjugating enzyme Ubc9 to the chemically activatable heterodimerisation domains FKBP and FRB, respectively, as shown in FIG. 2. When the substrate protein fused to FKBP is coexpressed with Ubc9-FRB, treatment of HEK293 cells with the rapamycin-related dimerizer AP21967 induces SUMOylation of the substrate protein fused to FKBP at its specific SUMOylation site. […] Dependent on an EcoRl site in the coding sequence, seven C-terminal amino acids of the human STAT1a in the STAT1-FKBP/FRB fusion proteins are missing. For the SUMOylation analysis HEK293 (human embryonic kidney cells) cells have been used. HEK293 cells were cultured in Dulbecco's modified Eagle's medium with high glucose, complemented with 10% fetal calf serum, 2 mM L-glutamine, 100 U/ml penicillin and […] streptomycin. We performed transfection of HEK293 cells using the polyethylenimine transfection reagent. HEK293 cells of a fresh confluent 10 cm plate were transferred on a 12-well plate. After 12-24 h incubation about 70% cell confluence is reached. For each well 45 μl of serum/antibiotic free DMEM medium is mixed with 750 ng of the transfection-purity expression vector DNA (all together 47 μl) and vortexed. Then, 3 μl of vortexed polyethylenimin stock solution (1 mg/ml) is added and the mixture is vortexed. After incubation at room temperature for 10 min 450 μl fresh DMEM with antibiotics is added to the mixture and vortexed. The medium on the cells was then completely removed and immediately, the 500 μl transfection mix was added carefully to each well. The 12 well plate was rocked to ensure a proper distribution of the DNA/transfection reagent complex. After an incubation of the cells for 24 h at a 37° C. in a humidified CO2-incubator (5%) the cells were lysed in 150 μl Laemmli (2×) gel loading buffer (160 mM Tris-HCL, pH 6.8, 4% (w/v) sodium dodecyl sulphate (SDS), 20% (v/v) glycerol, 0.5% β-mercaptoethanol (v/v), 0.008% (w/v) bromophenol blue) and incubated for 10 min at 95° C. For western blot analysis the proteins were separated by SDS-PAGE, blotted on a PVDF membrane and developed with specific primary antibodies (α-Ubc9 (H81, Santa Cruz), α-pY701-STAT1 (Tyr701, Cell Signaling), α-STAT1 (Cell Signaling), α-p53 (1C12, Cell Signaling), α-SUMO1 (Cell Signaling), a horseradish peroxidase (HRP)-conjugated secondary antibody (different companies), the ECL+ (Amersham) or Immobilon™ Western (Millipore) and the LAS-3000 imaging system (Fuji).
As shown above, the SUMOylation of a protein of interest can be induced by the heterodimerisation with a binding protein fused to Ubc9. To find out if Trans-SUMOylation is useful for the characterisation of common protein interactions, protein binding pairs well known from the literature or found in two hybrid screens. […] Therefore the protein pairs were coexpressed with EGFP-SUMO1 in HEK293 cells and after 24h the transfectants were lysed and the protein extracts were analyzed in western blots.
Protein-protein interactions described in the cited references were tested for Trans-SUMOylation. Each specific protein-protein interaction was tested by coexpression of different combinations of protein 1 fused to Ubc9 (U) with protein 2 mostly fused two a tag (HA, FLAG, Myc, GST, ST). (++), strong TransSUMOylation; (+), TransSUMOylation; (+/−) weak TransSUMOylation; (−) no detectable TransSUMOylation; (MEKK1ca) the activated MAP3 kinase MEKK1, that can enhance protein SUMOylation, was coexpressed.
Protein-protein interaction of each pair of protein 1/protein 2 was tested by coexpression of different combinations of a protein 1 fused to Ubc9 (U) with protein 2 mostly fused two a Tag (HA, FLAG, GST, ST). […]

U-CSNK2B = target: T8, U-CSNK2B (Homo sapiens, UniProt P63279+P67870); assay: Trans-SUMOylation by U-CSNK2B; format: cell-based; set-up: key: (++), strong TransSUMOylation; (+), TransSUMOylation; (+/−) weak TransSUMOylation; (−) no detectable TransSUMOylation; details: protein 2 construct coexpressed with U-CSNK2B and EGFP-SUMO1 in HEK293, western blot
T8 construct: expressed in transfected cells; host or cells: HEK293
Excerpt: as §1, with “plate. After 12-24 h incubation about 70% cell confluence is reached. For each well 45 μl of serum/antibiotic free DMEM medium is mixed with 750 ng of the transfection-purity expression vector DNA (all together 47 μl) and vortexed. Then, 3 μl of vortexed polyethylenimin stock solution (1 mg/ml) is added and the mixture is vortexed. After incubation at room temperature for 10 min 450 μl fresh DMEM with antibiotics is added to the mixture and vortexed. The medium on the cells was then completely removed and immediately, the 500 μl transfection mix was added carefully to each well.” for “plate.”
(§3) As shown above, the SUMOylation of a protein of interest can be induced by the heterodimerisation with a binding protein fused to Ubc9. […] Therefore the protein pairs were coexpressed with EGFP-SUMO1 in HEK293 cells and after 24h the transfectants were lysed and the protein extracts were analyzed in western blots. […]

U-PSMC3 = target: T9, U-PSMC3 (Homo sapiens, UniProt P17980+P63279); assay: Trans-SUMOylation by U-PSMC3; format: cell-based; set-up: key: (++), strong TransSUMOylation; (+), TransSUMOylation; (+/−) weak TransSUMOylation; (−) no detectable TransSUMOylation; details: protein 2 construct coexpressed with U-PSMC3 and EGFP-SUMO1 in HEK293; western blot; Table 1
T9 construct: expressed in transfected cells; host or cells: HEK293
Excerpt: as §1, with “streptomycin.” for “streptomycin. We performed transfection of HEK293 cells using the polyethylenimine transfection reagent. HEK293 cells of a fresh confluent 10 cm plate were transferred on a 12-well plate.”
as §3

CSNK2B-U = target: T10, CSNK2B-U (Homo sapiens, UniProt P63279+P67870); assay: Trans-SUMOylation by CSNK2B-U; format: cell-based; details: protein 2 construct coexpressed with CSNK2B-U and EGFP-SUMO1 in HEK293; MEKK1ca coexpressed; Table 1
T10 construct: expressed in transfected cells; host or cells: HEK293

[1] = protein 2 construct coexpressed with P53-U (p53-U) and EGFP-SUMO1 in HEK293, Table 1

T7 sequence (P63279+Q8IW41 fused): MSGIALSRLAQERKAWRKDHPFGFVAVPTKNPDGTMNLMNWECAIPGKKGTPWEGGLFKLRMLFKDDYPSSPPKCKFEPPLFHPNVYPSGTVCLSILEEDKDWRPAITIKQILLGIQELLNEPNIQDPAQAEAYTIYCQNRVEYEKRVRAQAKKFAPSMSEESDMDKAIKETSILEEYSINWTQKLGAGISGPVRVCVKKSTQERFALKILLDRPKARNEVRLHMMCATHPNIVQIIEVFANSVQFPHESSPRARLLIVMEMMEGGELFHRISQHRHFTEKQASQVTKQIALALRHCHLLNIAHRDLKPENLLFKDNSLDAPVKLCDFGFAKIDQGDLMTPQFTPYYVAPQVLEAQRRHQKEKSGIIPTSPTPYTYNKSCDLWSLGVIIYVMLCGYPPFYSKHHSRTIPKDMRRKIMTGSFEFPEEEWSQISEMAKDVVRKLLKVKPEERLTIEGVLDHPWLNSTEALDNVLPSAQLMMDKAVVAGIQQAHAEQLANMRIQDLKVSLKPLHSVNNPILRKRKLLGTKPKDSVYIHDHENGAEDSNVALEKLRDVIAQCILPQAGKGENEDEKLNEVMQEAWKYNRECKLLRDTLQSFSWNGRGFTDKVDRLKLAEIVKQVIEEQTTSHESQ
T6 sequence (P49137+P63279 fused): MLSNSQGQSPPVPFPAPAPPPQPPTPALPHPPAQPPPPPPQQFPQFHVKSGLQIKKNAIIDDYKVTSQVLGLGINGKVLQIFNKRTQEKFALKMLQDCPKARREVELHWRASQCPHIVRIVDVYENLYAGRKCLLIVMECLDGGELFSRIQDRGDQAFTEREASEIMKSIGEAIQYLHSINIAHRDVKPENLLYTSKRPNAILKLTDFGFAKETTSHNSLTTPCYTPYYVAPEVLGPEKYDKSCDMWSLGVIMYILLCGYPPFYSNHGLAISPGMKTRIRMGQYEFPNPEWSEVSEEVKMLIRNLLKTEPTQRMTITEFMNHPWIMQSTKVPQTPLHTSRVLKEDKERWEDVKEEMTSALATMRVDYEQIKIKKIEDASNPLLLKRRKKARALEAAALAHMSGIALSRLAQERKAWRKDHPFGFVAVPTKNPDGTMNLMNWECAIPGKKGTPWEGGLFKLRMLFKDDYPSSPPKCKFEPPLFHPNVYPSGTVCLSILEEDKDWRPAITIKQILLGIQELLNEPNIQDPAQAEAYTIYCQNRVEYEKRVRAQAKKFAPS
T3 sequence (P63279+Q16539 fused): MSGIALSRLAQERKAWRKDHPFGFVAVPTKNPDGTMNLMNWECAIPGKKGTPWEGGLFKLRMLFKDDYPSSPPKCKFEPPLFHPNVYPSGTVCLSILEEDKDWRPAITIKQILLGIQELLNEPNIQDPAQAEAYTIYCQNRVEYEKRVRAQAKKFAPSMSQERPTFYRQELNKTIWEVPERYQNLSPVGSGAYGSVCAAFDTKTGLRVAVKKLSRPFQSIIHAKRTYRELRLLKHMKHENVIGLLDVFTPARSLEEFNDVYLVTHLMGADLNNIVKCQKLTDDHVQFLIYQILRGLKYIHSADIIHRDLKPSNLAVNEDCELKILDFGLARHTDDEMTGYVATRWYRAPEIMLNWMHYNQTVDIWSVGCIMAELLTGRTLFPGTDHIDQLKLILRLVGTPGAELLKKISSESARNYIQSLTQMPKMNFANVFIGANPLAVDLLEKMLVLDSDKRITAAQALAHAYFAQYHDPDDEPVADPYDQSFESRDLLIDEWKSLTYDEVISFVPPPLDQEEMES
T2 sequence (P63279+P49137 fused): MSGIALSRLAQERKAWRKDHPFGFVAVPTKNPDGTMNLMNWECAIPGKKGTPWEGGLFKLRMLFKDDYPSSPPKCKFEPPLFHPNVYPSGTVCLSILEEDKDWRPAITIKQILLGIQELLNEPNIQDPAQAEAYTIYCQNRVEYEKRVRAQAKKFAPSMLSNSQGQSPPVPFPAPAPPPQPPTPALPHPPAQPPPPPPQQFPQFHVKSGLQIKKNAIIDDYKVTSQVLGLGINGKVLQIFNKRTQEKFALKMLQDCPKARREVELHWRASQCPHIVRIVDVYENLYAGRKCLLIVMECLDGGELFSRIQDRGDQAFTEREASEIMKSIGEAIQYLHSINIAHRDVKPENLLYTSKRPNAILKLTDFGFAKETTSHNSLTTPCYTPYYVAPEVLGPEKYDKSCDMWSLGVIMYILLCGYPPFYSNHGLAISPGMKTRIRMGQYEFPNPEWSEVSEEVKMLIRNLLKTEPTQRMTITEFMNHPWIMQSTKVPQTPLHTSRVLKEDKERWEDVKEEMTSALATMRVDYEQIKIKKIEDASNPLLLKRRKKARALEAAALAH
T5 sequence (P05412+P63279 fused): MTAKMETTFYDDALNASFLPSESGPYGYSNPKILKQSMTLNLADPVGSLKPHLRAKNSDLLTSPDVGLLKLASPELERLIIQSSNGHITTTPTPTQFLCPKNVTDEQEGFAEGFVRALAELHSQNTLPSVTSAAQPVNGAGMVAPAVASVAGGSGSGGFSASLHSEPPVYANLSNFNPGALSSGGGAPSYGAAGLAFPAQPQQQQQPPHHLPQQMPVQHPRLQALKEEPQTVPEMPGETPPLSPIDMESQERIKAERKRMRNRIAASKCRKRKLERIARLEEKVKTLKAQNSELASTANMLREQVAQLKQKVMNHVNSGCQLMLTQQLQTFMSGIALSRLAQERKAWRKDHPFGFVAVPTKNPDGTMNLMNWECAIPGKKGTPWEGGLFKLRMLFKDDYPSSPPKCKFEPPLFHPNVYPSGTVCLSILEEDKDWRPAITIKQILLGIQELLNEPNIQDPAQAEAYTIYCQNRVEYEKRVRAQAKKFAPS
T1 sequence (P42224 1-743 limits assumed): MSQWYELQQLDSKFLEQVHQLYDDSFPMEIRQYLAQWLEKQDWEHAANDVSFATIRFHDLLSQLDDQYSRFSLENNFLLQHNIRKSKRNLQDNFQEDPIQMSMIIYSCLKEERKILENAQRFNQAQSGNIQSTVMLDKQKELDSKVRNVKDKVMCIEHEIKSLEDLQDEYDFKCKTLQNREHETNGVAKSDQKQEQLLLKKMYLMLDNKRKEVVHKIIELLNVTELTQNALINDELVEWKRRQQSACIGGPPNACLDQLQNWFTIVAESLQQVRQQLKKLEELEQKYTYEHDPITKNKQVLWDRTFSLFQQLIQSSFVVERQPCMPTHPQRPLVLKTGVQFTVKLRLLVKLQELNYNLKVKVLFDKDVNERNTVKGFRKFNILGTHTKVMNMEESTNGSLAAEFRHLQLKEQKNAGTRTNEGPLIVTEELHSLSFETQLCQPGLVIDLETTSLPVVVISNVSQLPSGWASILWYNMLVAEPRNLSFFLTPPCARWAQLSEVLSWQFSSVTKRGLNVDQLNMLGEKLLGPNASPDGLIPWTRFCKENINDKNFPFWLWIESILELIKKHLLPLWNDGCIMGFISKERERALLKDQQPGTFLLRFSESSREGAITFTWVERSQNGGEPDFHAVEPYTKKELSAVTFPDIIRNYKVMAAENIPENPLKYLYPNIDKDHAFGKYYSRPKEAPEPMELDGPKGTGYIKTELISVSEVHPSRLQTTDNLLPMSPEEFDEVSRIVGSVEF
T1 sequence (P63279 whole entry partner, the tested form may be a part): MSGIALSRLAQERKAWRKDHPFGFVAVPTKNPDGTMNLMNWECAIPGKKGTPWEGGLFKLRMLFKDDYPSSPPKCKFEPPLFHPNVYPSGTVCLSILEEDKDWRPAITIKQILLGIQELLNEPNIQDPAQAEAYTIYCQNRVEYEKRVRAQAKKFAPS
T1 sequence (P62942 2-108 limits assumed): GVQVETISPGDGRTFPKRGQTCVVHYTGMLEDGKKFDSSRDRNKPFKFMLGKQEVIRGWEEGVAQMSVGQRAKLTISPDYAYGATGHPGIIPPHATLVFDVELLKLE
T1 sequence (P42345 2021-2113 limits assumed): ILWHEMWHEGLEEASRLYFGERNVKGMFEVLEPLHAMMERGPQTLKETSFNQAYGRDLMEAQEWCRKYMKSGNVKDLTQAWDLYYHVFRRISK
T8 sequence (P63279+P67870 fused): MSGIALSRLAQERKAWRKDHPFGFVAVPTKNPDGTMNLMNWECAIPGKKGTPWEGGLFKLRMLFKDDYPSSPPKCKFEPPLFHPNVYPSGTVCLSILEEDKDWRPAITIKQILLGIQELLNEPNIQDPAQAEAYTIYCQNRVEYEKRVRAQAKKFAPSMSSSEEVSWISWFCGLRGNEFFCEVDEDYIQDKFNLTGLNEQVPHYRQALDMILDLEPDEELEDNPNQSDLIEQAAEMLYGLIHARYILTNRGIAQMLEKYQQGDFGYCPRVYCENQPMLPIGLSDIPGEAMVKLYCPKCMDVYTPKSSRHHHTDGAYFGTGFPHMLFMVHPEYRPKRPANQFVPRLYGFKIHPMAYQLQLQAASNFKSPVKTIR
T9 sequence (P63279+P17980 fused): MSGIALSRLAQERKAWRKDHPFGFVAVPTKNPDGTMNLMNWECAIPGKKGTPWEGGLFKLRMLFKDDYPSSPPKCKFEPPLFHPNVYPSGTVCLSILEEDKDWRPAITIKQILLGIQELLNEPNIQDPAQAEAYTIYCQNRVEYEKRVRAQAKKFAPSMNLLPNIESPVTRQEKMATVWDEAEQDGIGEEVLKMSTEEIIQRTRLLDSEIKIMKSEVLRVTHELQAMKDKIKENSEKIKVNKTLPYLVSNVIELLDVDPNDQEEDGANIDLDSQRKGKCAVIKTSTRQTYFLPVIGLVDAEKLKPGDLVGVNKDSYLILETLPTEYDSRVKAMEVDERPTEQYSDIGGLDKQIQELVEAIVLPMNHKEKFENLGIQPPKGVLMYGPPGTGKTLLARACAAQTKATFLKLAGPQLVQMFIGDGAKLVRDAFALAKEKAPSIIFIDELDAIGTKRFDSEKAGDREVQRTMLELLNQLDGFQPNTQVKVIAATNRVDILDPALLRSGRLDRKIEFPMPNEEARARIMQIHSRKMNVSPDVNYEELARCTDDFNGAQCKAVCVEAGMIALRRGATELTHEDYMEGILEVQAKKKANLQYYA

CO[C@H]1[C@@H](O)[C@H](C)C[C@H](C)/C=C/C=C/C=C(\C)[C@@H](c2c[nH]c3c(C)cccc23)C[C@@H]2CC[C@@H](C)[C@@](O)(O2)C(=O)C(=O)N2CCCC[C@H]2C(=O)O[C@H]([C@H](C)C[C@@H]2CC[C@@H](O)[C@H](OC)C2)C[C@H](O)[C@H](C)/C=C(\C)[C@H]1O [AP21967]
SUMOylation of STAT1-FKBP (STAT1-FRB and STAT1-FKBP; STAT1-FKBP in combination with Ubc9-FRB and EGFP-SUMO1, AP21967): induced SUMOylation
SUMOylation of STAT1-FRB (STAT1-FRB and STAT1-FKBP; STAT1-FRB coexpressed with Ubc9-FKBP and EGFP-SUMO1, AP21967 1 μM, western blot α-STAT1): strongly enhanced SUMOylation
SUMOylation of p53-FKBP (p53-FRB and p53-FKBP; p53-FKBP in combination with Ubc9-FRB and EGFP-SUMO1, AP21967): induced SUMOylation
SUMOylation of p53-FRB (p53-FRB and p53-FKBP; p53-FRB coexpressed with Ubc9-FKBP and EGFP-SUMO1, AP21967 1 μM, western blot α-p53): strongly enhanced SUMOylation

ERK1: ERK1, protein 2 construct without tag
Trans-SUMOylation (U-MK2; western blot, Table 2): +
Trans-SUMOylation (U-p38α; western blot, Table 1): +
Trans-SUMOylation (p53-U; [1]): −

FLAG-p38α: p38α fused to FLAG tag
Trans-SUMOylation (JUN-U): −
Trans-SUMOylation (U-MK2; western blot, Table 1): +
Trans-SUMOylation (MK2-U; western blot, Table 1): +
Trans-SUMOylation (U-MK5; Table 1): +
Trans-SUMOylation (p53-U; [1]): −
Trans-SUMOylation (U-CSNK2B; Table 1): −

GST-ERK3: ERK3 fused to GST tag
Trans-SUMOylation (U-MK2; western blot, Table 2): −
Trans-SUMOylation (U-p38α; western blot, Table 2): −
Trans-SUMOylation (U-MK5; Table 1): +

GST-FOS: FOS fused to GST tag
Trans-SUMOylation (MK2-U; western blot, Table 2): −

GST-MK2: MK2 fused to GST tag
Trans-SUMOylation (JUN-U): −
Trans-SUMOylation (U-MK2; MEKK1 coexpressed, Table 2): ++ (MEKK1)
Trans-SUMOylation (U-MK2; western blot, Table 2): +
Trans-SUMOylation (MK2-U; MEKK1 coexpressed, Table 2): ++ (MEKK1)
Trans-SUMOylation (MK2-U; western blot, Table 2): +
Trans-SUMOylation (U-p38α; MEKK1ca (Table 1B: MEKK1) coexpressed, Table 1): ++ (MEKK1ca)
Trans-SUMOylation (U-p38α; western blot, Table 1): +
Trans-SUMOylation (U-MK5; Table 2): (+/−)
Trans-SUMOylation (p53-U; protein 2 construct coexpressed with p53-U and EGFP-SUMO1 in HEK293, Table 2): −
Trans-SUMOylation (U-CSNK2B; Table 2): (+/−)

GST-PSMC3: PSMC3 fused to GST tag
Trans-SUMOylation (MK2-U; western blot, Table 2): −
Trans-SUMOylation (U-PSMC3): +

HA-CSNK2B: CSNK2B fused to HA tag
Trans-SUMOylation (CSNK2B-U): + (MEKK1ca)
